Results: patent publication US10414821

Columns and labels:
PD-1 [1] = target: PD-1 (UniProt Q15116); assay: ELISA
Target sequence in this assay (Q15116 25-170): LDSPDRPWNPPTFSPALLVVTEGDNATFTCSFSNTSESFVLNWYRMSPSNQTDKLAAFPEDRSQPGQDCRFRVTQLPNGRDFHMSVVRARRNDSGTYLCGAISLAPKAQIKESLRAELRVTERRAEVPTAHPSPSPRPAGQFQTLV

PD-1 [2] = target: PD-1 (UniProt Q15116); assay: blocking ELISA (PD-1/PD-L1)
Target sequence in this assay (Q15116 25-167): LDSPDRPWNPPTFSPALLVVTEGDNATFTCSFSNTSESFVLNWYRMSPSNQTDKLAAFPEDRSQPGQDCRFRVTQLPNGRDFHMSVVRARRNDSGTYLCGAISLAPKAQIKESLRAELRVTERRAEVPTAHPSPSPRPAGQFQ

| EC50 (PD-1 [1]) [nM] | IC50 (PD-1 [2]) [nM] | Substance |
| --- | --- | --- |
| 0.08 | – | MK3475 |
| – | 0.603 | MK-3475 |
